Changes are numbered by the printed parent chain. Some results are limits rather than exact numbers.

In assay [1] the target is T1, Fc-labeled CD70 antigen.
T1 construct: soluble antigen used at 1:100 to stain CAR-T cells; also called detected with the secondary antibody PE-Fc (axis label PE-Fc)
T1 sequence (P32970 whole entry, species assumed, looked up): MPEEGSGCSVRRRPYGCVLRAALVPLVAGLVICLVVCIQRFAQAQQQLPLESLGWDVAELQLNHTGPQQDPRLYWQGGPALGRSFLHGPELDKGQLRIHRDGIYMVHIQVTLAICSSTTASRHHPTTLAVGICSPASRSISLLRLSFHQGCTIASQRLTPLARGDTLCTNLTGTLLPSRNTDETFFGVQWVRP
In words: flow cytometry: CAR-transduced T cells stained with Fc-labeled CD70 antigen (1:100) and secondary antibody PE-Fc; NT control 0.61. Here is the method:
The CAR positive rate of the retrovirus-infected T lymphocytes were detected 72 hours after virus infection. For the chimeric antigen receptor group containing CD70-2A5-BBz, CD70-5C10-BBz, CD70-8A6-BBz, CD70-8B4-BBz, CD70-8E1-BBz, CD70-8F9-BBz, CD70-9D8-BBz, CD70-11C9-BBz and ARGX-BBz clone and the negative uninfected control group NT, 1×10⁶ cells from the above two groups respectively, were taken and centrifuged to remove the medium, the cells were washed once with PBS, and resuspended in 100 μL of the flow loading tube (BD). Fc-labeled CD70 antigen (1:100) was added and incubated for 30 minutes at 4° C. After washing the cells once with PBS, the secondary antibody PE-Fc was added according to the recommended ratio and incubated for 30 minutes in the dark. After the cells were washed once with PBS, the cells were resuspended in 200 μL of PBS and tested on the machine. The results of flow cytometric analysis of CAR-T positive rate are shown by FIG. 11.

Assay [2] concerns the target T1, Fc-labeled CD70 antigen. In words: flow cytometry: CAR-transduced T cells stained with Fc-labeled CD70 antigen (1:100) and secondary antibody PE-Fc; NT control 0.79. Here is the method:
The CAR positive rate of the retrovirus-infected T lymphocytes was detected 72 hours after virus infection. For the chimeric antigen receptor group containing CD70-2A5-BBz, CD70-8B4-BBz, CD70-9D8-BBz, CD70-11C9-BBz and ARGX-BBz clones and the negative uninfected control NT, 1×10⁶ cells from the above two groups respectively, were taken and centrifuged to remove the medium, washed once with PBS, and resuspended in 100 μL in a flow loading tube (BD). Fc-labeled CD70 antigen (1:100) was added and incubated for 30 minutes at 4° C. After washing the cells once with PBS, the secondary antibody PE-Fc was added according to the recommended ratio and incubated for 30 minutes in the dark. After the cells were washed once with PBS, the cells were resuspended in 200 μL of PBS and tested on the machine. The results of flow cytometric analysis of CAR-T positive rate are shown by FIG. 16.

The next assay addresses T2, CD70-9D8 VHH-huIgG1-Fc (human, UniProt P01857-1 104-330 = IgG part, limits assumed).
T2 construct: domain: IgG1-Fc; Recombinant VHH-huIgG1-Fc made in 293F cells; also called VHH-huFc antibody CD70-9D8
Briefly: BLI (Octet K2); biotinylated CD70 on SA probe, VHH-huFc as analyte at 200, 100, 50, 25 nM. Here is the method:
(§1) The affinity of four VHH-huFc antibodies CD70-2A5, CD70-8B4, CD70-9D8, and CD70-11C9 to human CD70 was analyzed by Octet K2 molecular interaction analyzer. The SA probe was immobilized with 200 μL 100 nM biotinylated recombinant human CD70 protein at a height of […]. […] The results are shown by FIG. 8 and Table 4.

The next assay has as its target T3, CD70-11C9 VHH-huIgG1-Fc (human, UniProt P01857-1 104-330 = IgG part).
T3 construct: domain: IgG1-Fc; Recombinant VHH-huIgG1-Fc made in 293F cells; also called VHH-huFc antibody CD70-11C9
The description is as above. The method, then: as §1

The next assay has as its target T4, CD70-2A5 VHH-huIgG1-Fc (human, UniProt P01857-1 104-330 = IgG part, limits assumed).
T4 construct: domain: IgG1-Fc; Recombinant VHH-huIgG1-Fc made in 293F cells; also called VHH-huFc antibody CD70-2A5
Described as above. Here is the method:
as §1

The target of the next assay is T5, CD70-8B4 VHH-huIgG1-Fc (human, UniProt P01857-1 104-330 = IgG part, limits assumed).
T5 construct: domain: IgG1-Fc; Recombinant VHH-huIgG1-Fc made in 293F cells; also called VHH-huFc antibody CD70-8B4
Described as above. The method, then:
as §1

B1: 11C9-BBz (other)
chimeric antigen receptor chain: QVQLVESGGGLVQPGGSLRLSCAASGFTLDYYAVGWFRQAPGKEREGVSCISSSSDGSTYYVDSVLGRFTISRNNAENTVYLQMNSLKPEDTAVYYCSTDVLTSCRSDRYLEVWGQGTLVTVSGTTTPAPRPPTPAPTIASQPLSLRPEACRPAAGGAVHTRGLDFACDIYIWAPLAGTCGVLLLSLVITLYCRFSVVKRGRKKLLYIFKQPFMRPVQTTQEEDGCSCRFPEEEEGGCELRVKFSRSADAPAYQQGQNQLYNELNLGRREEYDVLDKRRGRDPEMGGKPRRKNPQEGLYNELQKDKMAEAYSEIGMKGERRRGKGHDGLYQGLSTATKDTYDALHMQALPPR
notes: also called CD70-11C9-BBz
As to B1, the results for the “CD70 CAR+ (positive rate of the cells)” value with Fc-labeled CD70 antigen [1] and with Fc-labeled CD70 antigen [2] were 51.3% and 70.9%, respectively.

B2: 2A5-BBz (other)
chimeric antigen receptor chain: EVQLVESGGGLVQAGGSLRLSCAASGSIFSINAMGWYRQAPGKQRELVAAITSGGSTNYADSVKGRFTISRDNAKNTVYLQMNSLKPEDTAVYYCNAGAGRAFPGDYWGQGTQVTVSSTTTPAPRPPTPAPTIASQPLSLRPEACRPAAGGAVHTRGLDFACDIYIWAPLAGTCGVLLLSLVITLYCRFSVVKRGRKKLLYIFKQPFMRPVQTTQEEDGCSCRFPEEEEGGCELRVKFSRSADAPAYQQGQNQLYNELNLGRREEYDVLDKRRGRDPEMGGKPRRKNPQEGLYNELQKDKMAEAYSEIGMKGERRRGKGHDGLYQGLSTATKDTYDALHMQALPPR
notes: also called CD70-2A5-BBz
Regarding B2, the “CD70 CAR+ (positive rate of the cells)” value with Fc-labeled CD70 antigen [1] came to 75.8%; with Fc-labeled CD70 antigen [2], 82.4%.

B3: 5C10-BBz (other)
chimeric antigen receptor chain: B2 chimeric antigen receptor chain with E1Q, I31M, A60V
notes: also called CD70-5C10-BBz
With B3, the “CD70 CAR+ (positive rate of the cells)” value with Fc-labeled CD70 antigen [1] is 60%.

B4: 8B4-BBz (other)
chimeric antigen receptor chain: EVQLVESGGGFVQPGGSLRLSCAASGFTLDGYAVAWFRQAPGKEREGVSCISSSDGSTYYIDSVQGRFTITRNNAKNTVYLQMNSLKPEDTAVYYCTTDVLTSCRSDRWLEVWGQGTLVTVSSTTTPAPRPPTPAPTIASQPLSLRPEACRPAAGGAVHTRGLDFACDIYIWAPLAGTCGVLLLSLVITLYCRFSVVKRGRKKLLYIFKQPFMRPVQTTQEEDGCSCRFPEEEEGGCELRVKFSRSADAPAYQQGQNQLYNELNLGRREEYDVLDKRRGRDPEMGGKPRRKNPQEGLYNELQKDKMAEAYSEIGMKGERRRGKGHDGLYQGLSTATKDTYDALHMQALPPR
notes: also called CD70-8B4-BBz
B4: the “CD70 CAR+ (positive rate of the cells)” value is 72.1% with Fc-labeled CD70 antigen [1] and 78.3% in the assay with Fc-labeled CD70 antigen [2].

B5: 8F9-BBz (other)
chimeric antigen receptor chain: QLQLVESGGGLVQAGGSLRLSCAVSGRTSSTYAMAWFRQAPGKEREIVAVIGWSGGRTAYADSVKGRFTIAKDNAKNTVSLQMNSLKPEDTGVYYCAADSEQSSSSEGQAYGYEDWGQGTLVTVSSTTTPAPRPPTPAPTIASQPLSLRPEACRPAAGGAVHTRGLDFACDIYIWAPLAGTCGVLLLSLVITLYCRFSVVKRGRKKLLYIFKQPFMRPVQTTQEEDGCSCRFPEEEEGGCELRVKFSRSADAPAYQQGQNQLYNELNLGRREEYDVLDKRRGRDPEMGGKPRRKNPQEGLYNELQKDKMAEAYSEIGMKGERRRGKGHDGLYQGLSTATKDTYDALHMQALPPR
notes: also called CD70-8F9-BBz
Turning to B5, the “CD70 CAR+ (positive rate of the cells)” value in the assay with Fc-labeled CD70 antigen [1] was 72.7%.

B6: biotinylated recombinant human CD70 protein (ligand, UniProt P32970 39-193, looked up)
chain: QRFAQAQQQLPLESLGWDVAELQLNHTGPQQDPRLYWQGGPALGRSFLHGPELDKGQLRIHRDGIYMVHIQVTLAICSSTTASRHHPTTLAVGICSPASRSISLLRLSFHQGCTIASQRLTPLARGDTLCTNLTGTLLPSRNTDETFFGVQWVRP
modifications: biotin on the avi-tag
notes: also called biotinylated CD70 protein; biotinylated CD70 recombinant protein; not shown: avi-tag (and any other tag or Fc)
Usually Kd stands for the equilibrium constant for the complex coming apart. As usually defined, the koff is the first-order rate constant of dissociation. A word on the kon: it is a measure of how fast the partners come together. Consider B6, for which the Kd was 1830 pM with CD70-9D8 VHH-huIgG1-Fc, less than 1 pM with CD70-11C9 VHH-huIgG1-Fc, less than 1 pM in the assay with CD70-2A5 VHH-huIgG1-Fc and less than 1 pM with CD70-8B4 VHH-huIgG1-Fc. Besides, the off-rate constant (koff) was 0.000235 s⁻¹ with CD70-9D8 VHH-huIgG1-Fc, less than 1e-07 s⁻¹ with CD70-11C9 VHH-huIgG1-Fc, less than 1e-07 s⁻¹ in the assay with CD70-2A5 VHH-huIgG1-Fc and less than 1e-07 s⁻¹ with CD70-8B4 VHH-huIgG1-Fc. Further, the kon was determined as 129000 M⁻¹ s⁻¹ with CD70-9D8 VHH-huIgG1-Fc, 264000 M⁻¹ s⁻¹ with CD70-11C9 VHH-huIgG1-Fc, 36700 M⁻¹ s⁻¹ with CD70-2A5 VHH-huIgG1-Fc and 45500 M⁻¹ s⁻¹ with CD70-8B4 VHH-huIgG1-Fc.

B7: 9D8-BBz (other)
chimeric antigen receptor chain: QLQLVESGGGLVQPGGSLRLSCAVSGRTSSTYAMAWFRQAPGKEREIVAVITWSGGRTAYADSVKGRFTIAKDSAKNTVYLQMNSLKPEDTAVYYCAADSEVSSSSEGQYGYESWGQGTQVTVSSTTTPAPRPPTPAPTIASQPLSLRPEACRPAAGGAVHTRGLDFACDIYIWAPLAGTCGVLLLSLVITLYCRFSVVKRGRKKLLYIFKQPFMRPVQTTQEEDGCSCRFPEEEEGGCELRVKFSRSADAPAYQQGQNQLYNELNLGRREEYDVLDKRRGRDPEMGGKPRRKNPQEGLYNELQKDKMAEAYSEIGMKGERRRGKGHDGLYQGLSTATKDTYDALHMQALPPR
notes: also called CD70-9D8-BBz
Turning to B7, the entries for the “CD70 CAR+ (positive rate of the cells)” value with Fc-labeled CD70 antigen [1] and with Fc-labeled CD70 antigen [2] were 74.1% and 83%, respectively.

These data come from patent publication US20250255960A1 (HRAIN BIOTECHNOLOGY, published 2025).
